Experimental data taken from IntAct's records for PubMed 20729810.

B1: G protein-coupled receptor kinase 6 (Homo sapiens), P43250 (parent)
chain: MELENIVANTVLLKAREGGGGNRKGKSKKWRQMLQFPHISQCEELRLSLERDYHSLCERQPIGRLLFREFCATRPELSRCVAFLDGVAEYEVTPDDKRKACGRQLTQNFLSHTGPDLIPEVPRQLVTNCTQRLEQGPCKDLFQELTRLTHEYLSVAPFADYLDSIYFNRFLQWKWLERQPVTKNTFRQYRVLGKGGFGEVCACQVRATGKMYACKKLEKKRIKKRKGEAMALNEKQILEKVNSRFVVSLAYAYETKDALCLVLTLMNGGDLKFHIYHMGQAGFPEARAVFYAAEICCGLEDLHRERIVYRDLKPENILLDDHGHIRISDLGLAVHVPEGQTIKGRVGTVGYMAPEVVKNERYTFSPDWWALGCLLYEMIAGQSPFQQRKKKIKREEVERLVKEVPEEYSERFSPQARSLCSQLLCKDPAERLGCRGGSAREVKEHPLFKKLNFKRLGAGMLEPPFKPDPQAIYCKDVLDIEQFSTVKGVELEPTDQDFYQKFATGSVPIPWQNEMVETECFQELNVFGLDGSVPPDLDWKGQPPAPPKKGLLQRLFSRQDCCGNCSDSEEELPTRL

Variants of: B1
Details: with rom1_bovin ROM1, P52205
rom1_bovin ROM1, P52205, sequence (P52205 whole entry): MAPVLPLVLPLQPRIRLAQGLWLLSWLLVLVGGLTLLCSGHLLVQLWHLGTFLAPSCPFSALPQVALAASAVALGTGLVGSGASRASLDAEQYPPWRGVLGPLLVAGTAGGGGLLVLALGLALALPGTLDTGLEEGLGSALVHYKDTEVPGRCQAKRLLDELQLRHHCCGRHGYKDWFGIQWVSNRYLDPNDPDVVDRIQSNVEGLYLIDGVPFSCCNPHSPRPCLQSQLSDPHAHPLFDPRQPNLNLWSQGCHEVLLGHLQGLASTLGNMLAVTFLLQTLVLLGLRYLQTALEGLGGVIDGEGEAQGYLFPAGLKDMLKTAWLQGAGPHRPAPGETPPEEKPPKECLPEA

Row | effect of a mutation on the interaction | Variant
1 | decreasing interaction | E4A

Variants of: B1
Details: with rom1_bovin ROM1, P52205
Remark: another data set of the same source

Row | effect of a mutation on the interaction | Variant
2 | decreasing interaction | L13A

Variants of: B1
Details: with rom1_bovin ROM1, P52205
Remark: another data set of the same source

Row | effect of a mutation on the interaction | Variant
3 | disrupting interaction | L12A

Variants of: B1
Details: with rom1_bovin ROM1, P52205
Remark: another data set of the same source

Row | effect of a mutation on the interaction | Variant
4 | decreasing interaction | L3A

Variants of: B1
Details: with rom1_bovin ROM1, P52205
Remark: another data set of the same source

Row | effect of a mutation on the interaction | Variant
5 | disrupting interaction | I6E
6 | disrupting interaction | V7E

Variants of: B1
Details: with rom1_bovin ROM1, P52205
Remark: another data set of the same source

Row | effect of a mutation on the interaction | Variant
7 | decreasing interaction | I6A

Variants of: B1
Details: with rom1_bovin ROM1, P52205
Remark: another data set of the same source

Row | effect of a mutation on the interaction | Variant
8 | disrupting interaction | N9A

Variants of: B1
Details: with rom1_bovin ROM1, P52205
Remark: another data set of the same source

Row | effect of a mutation on the interaction | Variant
9 | decreasing interaction | V7A
